Results on nine molecules are retold here after US20200392228A1 (PANDION OPERATIONS, published 2020).

The target of experiment [1] is T1, mouse MAdCAM protein (mouse, UniProt Q61826 22-365, limits assumed).
T1 construct: also called recombinant mouse MAdCAM-1; mMAdCAM-1
T1 sequence (looked up): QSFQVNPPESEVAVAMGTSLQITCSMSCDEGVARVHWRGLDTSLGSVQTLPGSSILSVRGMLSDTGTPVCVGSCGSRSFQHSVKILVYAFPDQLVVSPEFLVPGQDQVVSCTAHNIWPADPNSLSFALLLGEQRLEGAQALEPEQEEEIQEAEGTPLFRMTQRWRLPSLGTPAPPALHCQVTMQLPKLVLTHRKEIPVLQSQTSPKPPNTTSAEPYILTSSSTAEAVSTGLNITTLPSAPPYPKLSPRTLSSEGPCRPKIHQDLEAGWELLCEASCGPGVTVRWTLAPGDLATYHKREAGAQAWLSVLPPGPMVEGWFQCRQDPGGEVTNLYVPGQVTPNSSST
Put plainly: Octet.

Experiment [2] addresses T2, human MAdCAM protein (human, UniProt Q13477 19-317).
T2 construct: used for Octet, SPR, ELISA and plate capture; construct not described; also called recombinant human MAdCAM; soluble monomeric human MAdCAM
T2 sequence (looked up): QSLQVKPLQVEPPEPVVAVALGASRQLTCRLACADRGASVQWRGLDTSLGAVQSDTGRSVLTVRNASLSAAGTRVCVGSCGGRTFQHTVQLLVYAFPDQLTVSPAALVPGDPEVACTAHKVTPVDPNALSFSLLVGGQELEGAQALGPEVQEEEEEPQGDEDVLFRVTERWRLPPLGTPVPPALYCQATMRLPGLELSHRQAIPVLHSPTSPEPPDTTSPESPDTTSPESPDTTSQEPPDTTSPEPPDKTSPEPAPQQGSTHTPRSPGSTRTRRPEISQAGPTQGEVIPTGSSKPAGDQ
Put plainly: Octet.

In experiment [3] the target is T3, human MAdCAM expressed on cells (human, UniProt Q13477 19-382).
T3 construct: whole, on cells; also called MADCAM1
T3 sequence (looked up): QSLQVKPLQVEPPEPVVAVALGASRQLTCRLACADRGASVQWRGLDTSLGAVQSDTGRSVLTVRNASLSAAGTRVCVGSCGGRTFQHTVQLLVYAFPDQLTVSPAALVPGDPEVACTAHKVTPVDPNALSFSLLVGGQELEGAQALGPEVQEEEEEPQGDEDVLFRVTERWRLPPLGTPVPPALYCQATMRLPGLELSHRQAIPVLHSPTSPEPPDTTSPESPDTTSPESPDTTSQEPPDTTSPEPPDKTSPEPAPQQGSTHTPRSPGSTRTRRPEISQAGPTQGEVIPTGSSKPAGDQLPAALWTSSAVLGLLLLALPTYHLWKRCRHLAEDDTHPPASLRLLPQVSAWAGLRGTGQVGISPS
Kind of experiment: cell binding.

Experiment [4] has as its target T4, mouse MAdCAM expressed on cells (mouse, UniProt Q61826 22-405).
T4 construct: whole, on cells
T4 sequence (looked up): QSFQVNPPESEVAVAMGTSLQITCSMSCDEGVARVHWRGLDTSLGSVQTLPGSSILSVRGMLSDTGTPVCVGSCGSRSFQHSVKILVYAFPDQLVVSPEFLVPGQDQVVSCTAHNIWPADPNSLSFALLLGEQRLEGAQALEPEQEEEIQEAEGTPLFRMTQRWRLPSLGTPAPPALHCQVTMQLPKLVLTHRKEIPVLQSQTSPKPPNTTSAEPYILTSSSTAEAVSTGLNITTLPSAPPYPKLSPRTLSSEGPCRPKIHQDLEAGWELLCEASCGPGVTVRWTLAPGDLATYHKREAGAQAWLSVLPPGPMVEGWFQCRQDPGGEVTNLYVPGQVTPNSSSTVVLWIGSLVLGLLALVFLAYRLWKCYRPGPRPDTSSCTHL
Put plainly: cell binding.

B1: MAdCAM antibody Clone ID 23 of Table 6 (scFv) (scFv)
scFv: EVQLLESGGGLVQPGGSLRLSCAASGFTFSSYAMHWVRQAPGKGLEWVSGISGSGGSAYYADSVKGRFTISRDNSKNTLYLQMNSLRAEDTAVYYCATSQAPVDYYYYGMDVWGQGTTVTVSSGGGGSGGGGSGGGGSGGGGSDIQMTQSPSSLSASVGDRVTITCRASQSISSWLAWYQQKPGKAPKLLIYAASNLQRGVPSRFSGSGSGTDFTLTISSLQPEDFATYYCQQSYSIPITFGQGTKVEIK
B1: the binding result is “no binding” in experiment [1], “binds” in experiment [2], “binds” in experiment [3] and “no binding” in experiment [4].

B2: MAdCAM antibody Clone ID 6 of Table 6 (scFv) (scFv)
scFv: EVQLLESGGGLVQPGGSLRLSCAASGFTFNNYAFHWVRQAPGKGLEWVSRINSYGTSTTYADSVKGRFTISRDNSKNTLYLQMNSLRAEDTAVYYCAREGPVAGYWYFDLWGQGTLVTVSSGGGGSGGGGSGGGGSGGGGSDIQMTQSPSSLSASVGDRVTITCRASQIIGTNLAWYQQKPGKAPKLLIYGASSLQSGVPSRFSGSGSGTDFTLTISSLQPEDFATYYCQQSYRLPFTFGQGTKVEIK
notes: also called Antibody Clone 6
With B2, the binding result is listed as “no binding” in experiment [1], “binds” in experiment [2], “binds” in experiment [3] and “no binding” in experiment [4].

B3: MAdCAM antibody Clone ID 63 of Table 6 (scFv) (scFv)
scFv: EVQLLESGGGLVKPGGSLRLSCAASGFTFDDYAMHWVRQAPGKGLEWVASITSSSAFIDYAASVKGRFTISRDDSKNTLYLQMNSLKTEDTAVYYCARERVDWNSYFDLWGRGTLVTVSSGGGGSGGGGSGGGGSGGGGSEIVMTQSPATLSVSPGERATLSCRASQGISNSYLAWYQQKPGQAPRLLIYGASTRATGIPARFSGSGSGTEFTLTISSLQSEDFAVYYCQQYYTYPPTFGPGTKVDIK
For the molecule B3, the binding result in experiment [1], in experiment [2], in experiment [3] and in experiment [4] was “binds” in each case.

B4: MAdCAM antibody Clone ID 4 of Table 6 (scFv) (scFv)
scFv: QVQLVQSGAEVKKPGASVKVSCKASGGTFSSYAISWVRQAPGQGLEWMGSINPSGDTTSYAQKFQGRVTMTRDTSTSTVYMELSSLRSEDTAVYYCAKDKAQWLVGYFDYWGQGTLVTVSSGGGGSGGGGSGGGGSGGGGSDIQMTQSPSSLSASVGDRVTITCQASQDISNSLNWYQQKPGKAPKLLIYAASSLQSGVPSRFSGSGSGTDFTLTISSLQPEDFATYYCQQSYSSVITFGQGTKVEIK
Take B4: the binding result in experiment [1], in experiment [2], in experiment [3] and in experiment [4] was “binds” throughout.

B5: MAdCAM antibody Clone ID 7 of Table 6 (scFv) (scFv)
scFv: QVQLVQSGAEVKKPGASVKVSCKASGYTFTGYHIHWVRQAPGQGLEWMGIINPSGGSTIYAQKFQGRVTMTRDTSTSTVYMELSSLRSEDTAVYYCAKDWSSWYLGPFDYWGQGTLVTVSSGGGGSGGGGSGGGGSGGGGSDIQMTQSPSSLSASVGDRVTITCRASQNISSSLNWYQQKPGKAPKLLIYAASSLQSGVPSRFSGSGSGTDFTLTISSLQPEDFATYYCQQSYTTPYTFGQGTKVEIK
Take B5: the binding result in experiment [1], in experiment [2], in experiment [3] and in experiment [4] was “binds” throughout.

B6: MAdCAM antibody Clone ID 5 of Table 6 (scFv) (scFv)
scFv: EVQLLESGGGLVQPGGSLRLSCAASGFTFSSYWMHWVRQAPGKGLEWVSSISPGGSNIDYADSVKGRFTISRDNSKNTLYLQMNSLRAEDTAVYYCAREVQLSHYDYWGQGTLVTVSSGGGGSGGGGSGGGGSGGGGSDIQMTQSPSSLSASVGDRVTITCRASQGISNSLAWYQQKPGKAPKLLIYGASSLQSGVPSRFSGSGSGTDFTLTISSLQPEDFATYYCQQANSFPFTFGQGTKVEIK
On to B6, for which the binding result in experiment [1], in experiment [2], in experiment [3] and in experiment [4] was “binds” in each case.

B7: MAdCAM antibody Clone ID 20 of Table 6 (scFv) (scFv)
scFv: EVQLLESGGGLVQPGGSLRLSCAASGFTFDDYAMHWVRQAPGKGLEWVSYIDTSSSHLYYADSVKGRFTISRDNSKNTLYLQMNSLRAEDTAVYYCARDEAAAGYYGMDVWGQGTTVTVSSGGGGSGGGGSGGGGSGGGGSDIQMTQSPSSLSASVGDRVTITCQAGQDISNYLNWYQQKPGKAPKLLIYDASNLETGVPSRFSGSGSGTDFTLTISSLQPEDFATYYCQQTYSTPITFGQGTKLEIK
In the case of B7, the binding result was “no binding” in experiment [1], “binds” in experiment [2], “binds” in experiment [3] and “no binding” in experiment [4].

B8: MAdCAM antibody Clone ID 19 of Table 6 (scFv) (scFv)
scFv: EVQLLESGGGLVQPGGSLRLSCAASGFTFDDYAMHWVRQAPGKGLEWVSGISWNSGSIGYADSVKGRFTISRDNSKNTLYLQMNSLRAEDTAVYYCAKDIVAAGHYYYGMDVWGQGTTVTVSSGGGGSGGGGSGGGGSGGGGSDIQMTQSPSSLSASVGDRVTITCQASQDISNYLNWYQQKPGKAPKLLIYDASNLETGVPSRFSGSGSGTDFTLTISSLQPEDFATYYCQQSYSTPLTFGGGTKVEIK
With B8, the binding result in experiment [1] was “no binding”; in experiment [2], “binds”; in experiment [3] it was “binds”; in experiment [4] it was “no binding”.

B9: MAdCAM antibody Clone ID 9 of Table 6 (scFv) (scFv)
scFv: EVQLLESGGGLVQPGGSLRLSCAASGFTFSDYYMNWVRQAPGKGLEWVSVIGESGGSTYYADSVKGRFTISRDNSKNTLYLQMNSLRAEDTAVYYCAADPVSRWPKHGGGDYWGQGTLVTVSSGGGGSGGGGSGGGGSGGGGSDIQMTQSPSSLSASVGDRVTITCRASQGISSSLAWYQQKPGKAPKLLIYAASTLQSGVPSRFSGSGSGTDFTLTISSLQPEDFATYYCQQSYSTPWTFGQGTKVEIK
For B9, the binding result in experiment [1], in experiment [2], in experiment [3] and in experiment [4] was “binds” in each case.
